B1: CPEB3 Ribozyme (parent)
chain: GGGGGCCACAGCAGAAGCGUUCACGUCGCGGCCCCUGUCAGAUUCUGGUGAAUCUGCGAAUUCUGCUGU

This note sets out measurements from the RNAGym collection of RNA variant scans (doi:10.7554/elife.80360).

In this data set the parent is B1. Briefly: self-cleavage, relative activity (ratio to wild type); higher = more cleavage; co-transcriptional.
In the case of GGGGGCCACAGCAGAAGCGUUCACGUUGCGGCCCCUGUCAGAUUCUGAUGAAUCUGCGAAUUCUGCUGU [C27U G48A], the self-cleavage is 0.431. For GGGGGCCACAGCAGAAGCGUUCACGUUGCGGCCCCUGUCAGAUUCUGUUGAAUCUGCGAAUUCUGCUGU [C27U G48U], the self-cleavage is 0.504. In the case of GGGGGCCACAGCAGAAGCGUUCACGUUGCGGCCCCUGUCAGACUCUGGUGAAUCUGCGAAUUCUGCUGU [C27U U43C], the self-cleavage was 0.285. As for GGGGGCCACAGCAGAAGCGUUCACGUUGCGGCCCCUGUCAGAUUCUGGUGAAUCUUCGAAUUCUGCUGU [C27U G56U], the self-cleavage worked out at 0.197.

Regarding GGGGGCCACAGCAGAAGCGUUCACGUUGCGGCCCCUGUCAGAUUCUGGUGAAUCUGCGAAGUCUGCUGU [C27U U61G], the self-cleavage amounted to 0.277. For the variant GGGGGCCACAGCAGAAGCGUUCACGUUGCGGCCCCUGUCAGAUUCUGGUGAAUCUGCGAAAUCUGCUGU [C27U U61A], the self-cleavage worked out at 0.22. GGGGGCCACAGCAGAAGCGUUCACGUCACGGCCCCUGUCCGAUUCUGGUGAAUCUGCGAAUUCUGCUGU [G28A A40C]: the self-cleavage amounted to 0.15. On to GGGGGCCACAGCAGAAGCGUUCACGUUGCGGCCCCUGUCAGAUUCUAGUGAAUCUGCGAAUUCUGCUGU [C27U G47A], for which the self-cleavage was determined as 0.459. With GGGGGCCACAGCAGAAGCGUUCACGUCACGGCCCCUGUCAGAUUCUAGUGAAUCUGCGAAUUCUGCUGU [G28A G47A], the self-cleavage amounted to 0.22. Turning to GGGGGCCACAGCAGAAGCGUUCACGUUGCGGCCCCUGUCAGAUUCUGGUGAAACUGCGAAUUCUGCUGU [C27U U53A], the self-cleavage was 0.25.

Consider GGGGGCCACAGCAGAAGCGUUCACGUUGCGGCCCCUGUCAGAUUCUGGUGAAGCUGCGAAUUCUGCUGU [C27U U53G], for which the self-cleavage came out at 0.18. On to GGGGGCCACAGCAGAAGCGUUCACGUUGCGGCCCCCGUCAGAUUCUGGUGAAUCUGCGAAUUCUGCUGU [C27U U36C], for which the self-cleavage came to 0.201. Regarding GGGGGCCACAGCAGAAGCGUUCACGUUGCGCCCCCUGUCAGAUUCUGGUGAAUCUGCGAAUUCUGCUGU [C27U G31C], the self-cleavage stood at 0.143. Consider GGGGGCCACAGCAGAAGCGUUCACGUCACGGCCGCUGUCAGAUUCUGGUGAAUCUGCGAAUUCUGCUGU [G28A C34G], for which the self-cleavage turned out to be 0.139.

GGGGGCCACAGCAGAAGCGUUCACGUCACGGCCUCUGUCAGAUUCUGGUGAAUCUGCGAAUUCUGCUGU [G28A C34U]: the self-cleavage stood at 0.244. On to GGGGGCCACAGCAGAAGCGUUCACGUUGCGGCCCCUGUCAGAUUCUGGUGAAUCUGCGAAUUCAGCUGU [C27U U64A], for which the self-cleavage came out at 0.161. GGGGGCCACAGCAGAAGCGUUCACGUCACGGCCCCUGUCAGAUUCUGGUGAAUCUGCGAAGUCUGCUGU [G28A U61G]: the self-cleavage came to 0.214. As to GGGGGCCACAGCAGAAGCGUUCACGUCCCGGCCCCUGUCAGCUUCUGGUGAAUCUGCGAAUUCUGCUGU [G28C A42C], the self-cleavage is 0.183. With GGGGGCCACAGCAGAAGCGUUCACGUCCCGGCCCCUGUCAGAUUCUGGUGAAUCUGCGAAUUCUGCUGU [G28C] the figure was 0.173. In the case of GGGGGCCACAGCAGAAGCGUUCACGUCACGGCCCCUGUCAGAUUCUGGUGAAUCUGCGAAUUCUGCUGU [G28A], the self-cleavage worked out at 0.213.

Turning to GGGGGCCACAGCAGAAGCGUUCACGUUGCGGCCCCUGGCAGAUUCUGGUGAAUCUGCGAAUUCUGCUGU [C27U U38G], the self-cleavage is 0.17.

GGGGGCCACAGCAGAAGCGUUCACGUUGCGGCCCCUGUCAGAUUCUGGCGAAUCUGCGAAUUCUGCUGU [C27U U49C]: the self-cleavage was found to be 0.301.

In the case of GGGGGCCACAGCAGAAGCGUUCACGUUGCGGCCCCUGUCAGAUUCUGGAGAAUCUGCGAAUUCUGCUGU [C27U U49A], the self-cleavage is 0.442. Take GGGGGCCACAGCAGAAGCGUUCACGUCACGGCCCCUGUCAGAUUCUGGUGAAUCUGCGAAUGCUGCUGU [G28A U62G]: the self-cleavage was determined as 0.208. Consider GGGGGCCACAGCAGAAGCGUUCACGUCACGGCCCCAGUCAGAUUCUGGUGAAUCUGCGAAUUCUGCUGU [G28A U36A], for which the self-cleavage came to 0.154. For GGGGGCCACAGCAGAAGCGUUCACGUUGCGGCCCCUGUCAGAUUCUGGUCAAUCUGCGAAUUCUGCUGU [C27U G50C], the self-cleavage turned out to be 0.272. The same measure for GGGGGCCACAGCAGAAGCGUUCACGUCACUGCCCCUGUCAGAUUCUGGUGAAUCUGCGAAUUCUGCUGU [G28A G30U]: 0.155.

For GGGGGCCACAGCAGAAGCGUUCACGUCACAGCCCCUGUCAGAUUCUGGUGAAUCUGCGAAUUCUGCUGU [G28A G30A], the self-cleavage was 0.156. Take GGGGGCCACAGCAGAAGCGUUCACGUUGCGGCCCCUGUCAGAUUCUGGUGAAUCUGUGAAUUCUGCUGU [C27U C57U]: the self-cleavage is 0.204.

As to GGGGGCCACAGCAGAAGCGUUCACGUUGCGGCCCCUGUCAGAUUCUGGUGAAUCUGCGAUUUCUGCUGU [C27U A60U], the self-cleavage was 0.205. For the variant GGGGGCCACAGCAGAAGCGUUCACGUCACGGCCCCUGUCAGAUUCUGGUGAAUCUGCGAAUUCUGUUGU [G28A C66U], the self-cleavage stood at 0.165. For GGGGGCCACAGCAGAAGCGUUCACGUCACGGCCCCUGUCAGAUUCUGGUGAAUCUGCGAAUUCUGAUGU [G28A C66A], the self-cleavage was 0.189. On to GGGGGCCACAGCAGAAGCGUUCACGUCACGGCCCCUGUCAGAUUCUGGUCAAUCUGCGAAUUCUGCUGU [G28A G50C], for which the self-cleavage turned out to be 0.226. With GGGGGCCACAGCAGAAGCGUUCACGUCACGGCCCCUGUGAGAUUCUGGUGAAUCUGCGAAUUCUGCUGU [G28A C39G] the figure was 0.157. Take GGGGGCCACAGCAGAAGCGUUCACGUUGCGGCCCCUGUCAGAUUCUGGUGAAUCUGCGAAUUCUGCUGA [C27U U69A]: the self-cleavage turned out to be 0.502. On to GGGGGCCACAGCAGAAGCGUUCACGUCACGGCCCCUGUCAGAUUCUGCUGAAUCUGCGAAUUCUGCUGU [G28A G48C], for which the self-cleavage was determined as 0.213. GGGGGCCACAGCAGAAGCGUUCACGUCACGGCCCCUGUCAGAUUCUGAUGAAUCUGCGAAUUCUGCUGU [G28A G48A]: the self-cleavage stood at 0.19.

On to GGGGGCCACAGCAGAAGCGUUCACGUCACGGCCCCUGUCAGAUUCUGUUGAAUCUGCGAAUUCUGCUGU [G28A G48U], for which the self-cleavage worked out at 0.19.

For GGGGGCCACAGCAGAAGCGUUCACGUUACGGCCCCUGUCAGAUUCUGGUGAAUCUGCGAAUUCUGCUGU [C27U G28A], the self-cleavage came to 0.126.
